{
  "source": "patent US10106589B2",
  "about": "“Compositions and methods for immunomodulation” (FUNDACIO INSTITUT D'INVESTIGACIO BIOMEDICA DE BELLVITGE …, priority 2011, dated 2018)",
  "molecules": {"B1": {"name": "C4BP (β^−): C4BP isoforms lacking beta chain: C4BP (α7β0) or C4BP (α6β0) (protein, UniProt P04003 49-597, looked up)", "C4b-binding protein alpha …": "NCGPPPTLSFAAPMDITLTETRFKTGTTLKYTCLPGYVRSHSTQTLTCNSDGEWVYNTFCIYKRCRHPGELRNGQVEIKTDLSFGSQIEFSCSEGFFLIGSTTSRCEVQDRGVGWSHPLPQCEIVKCKPPPDIRNGRHSGEENFYAYGFSVTYSCDPRFSLLGHASISCTVENETIGVWRPSPPTCEKITCRKPDVSHGEMVSGFGPIYNYKDTIVFKCQKGFVLRGSSVIHCDADSKWNPSPPACEPNSCINLPDIPHASWETYPRPTKEDVYVVGTVLRYRCHPGYKPTTDEPTTVICQKNLRWTPYQGCEALCCPEPKLNNGEITQHRKSRPANHCVYFYGDEISFSCHETSRFSAICQGDGTWSPRTPSCGDICNFPPKIAHGHYKQSSSYSFFKEEIIYECDKGYILVGQAKLSCSYSHWSAPAPQCKALCRKPELVNGRLSVDKDQYVEPENVTIQCDSGYGVVGPQSITCSGNRTWYPEVPKCEWETPEGCEQVLTGKRLMQCLPNPEDVKMALEVYKLSLEIEQLELQRDSARQSTLDKEL"}},
  "key": {"[1]": {"test_system": "LPS-matured DCs", "assay": "Phenotype stability after re-stimulation with TNF-alpha+IFN-gamma", "type": "cell-based, human", "conditions": "TNF-alpha+IFN-gamma for 24 h without immunomodulatory agents", "method": "The stability of C4BP(β−)- or FH-treated and LPS-matured DCs was evaluated after further 24 h of induction with pro-inflammatory TNF-alpha (100 U/ml)+IFN-gamma (1000 U/ml) in complete medium without immunomodulatory agents (C4BP(β−) or FH). Median fluorescence intensities (MIF) of DC markers CD83 (A) and CD86 (B) were determined for all DC conditions (with or without TNF-alpha+IFN-gamma). iDC, immature DCs; mDC, untreated LPS-matured DCs; B-5, C4BP(β−)-treated (5 μg/ml) and LPS-matured DCs; WT5, C4BP(β+)-treated (5 μg/ml) and LPS-matured DCs; Rec2, recombinant C4BP(β−)-treated (2 μg/ml) and LPS-matured DCs; FH5, FH-treated (5 μg/ml) and LPS-matured DCs (n=6 per group).\nDue to their potential use in the clinical setting, we aimed to study whether an ulterior activation of C4BP(β−)- or FH-treated and LPS-matured DCs would modify the phenotype of these tolerogenic DCs. Therefore, both untreated and C4BP(β−)- or FH-treated DCs were matured with LPS, as previously mentioned, and then re-stimulated without immunomodulatory agents (C4BP(β−) or FH) using TNF-alpha+IFN-gamma for 24 h. […] These tolerogenic C4BP(β−)- or FH-treated DCs were thus phenotypically refractory to secondary stimulation, confirming their stable non-proinflammatory profile."}, "[2]": {"test_system": "CD3+ T lymphocytes", "assay": "Determination of CD4+ CD127low/negative CD25high Foxp3+ T cells", "type": "cell-based, human", "conditions": "T cells stimulated 6 days with treated, LPS-matured DCs", "method": "CD3^+ T lymphocytes were purified from mononuclear cells by negative selection using an EasySep® Human T Cell Enrichment Kit (StemCell Technologies) following the manufacturer's instructions. Purity was >95% in all experiments. Enriched T cells were plated (10^5 cells/well) in 96-well round-bottom plates. […] Stained cells were analysed using a FACSCanto II (Becton Dickinson) and the results were analysed using FlowJo software (Tree Star, Inc, OR, USA)."}},
  "data": [
    {"molecule": "B1", "values": [
      {"measurement": "DC phenotype regarding the CD83 and CD86 markers after re-stimulation", "setting": "[1]", "result": "did not induce significant changes"},
      {"measurement": "DC viability after re-stimulation", "setting": "[1]; not shown", "result": "did not induce significant changes"},
      {"measurement": "percentage of CD4+Foxp3+ and CD25^high, CD127^low/negative cells", "setting": "[2]", "result": "significant increase"}
    ]}
  ]
}
